# Measurements reported in the supplement of paper PMC12636428.
# System: Saccharomyces cerevisiae
# Assay: transcriptional activation domain activity (GFP:mCherry ratio, weighted mean of sorted bins, harmonized to initial dataset scale) (arbitrary fluorescence ratio units); higher = stronger transcriptional activation
# Conditions: beta-estradiol 1 µM; induction time 4 h
# Summary of the method: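 After a 1:5 dilution into SC with 1 uM beta-estradiol and 4 hours at 30 °C, yeast diploids carrying a GFP reporter and URA3-integrated barcoded tiles were sorted into 8 bins by GFP:mCherry ratio. The tiles were fused to an estradiol-inducible synthetic transcription factor. Barcodes were sequenced, tiles below 50 reads were discarded, and activation activity was taken as the read-weighted mean of bin median fluorescence, averaged across barcodes and linearly mapped onto the initial dataset scale.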
row,Sequence,transcriptional activation domain activity
1,SLFFSVWALSQTWCVGHRRCSPMHLGTYYDAFIFLGISGMWKWSLLLIVIYRF,34000
2,FSLLLDSYIFLFNYCPVRYRYGYLIKDLVQNASRIKSIYTNSDLKFLFSFVWM,53800
3,LREVYLLSLFYRIKIRFLEAGFNRLKNLIKLDTRYYIVSFTYIVLELLKAKML,63300
4,ASPDADGNGEVKKKYDPKDPMRPRRKKARRACYACQRAHLTCGDERPCQRCIK,43400
5,AAAPRAKNAPRGKKQTAAKTAPEPEPEPEAEPAPAPKPRGRQKKTVKASAPEV,20800
6,SPRPSYILNAYLFISLLFDIVVLRTVWIALPSFQPVRIVLTSSFALKTIILFL,54000
7,LFFLLLPLLLHVIRIKSNMASSWVMVPLDFQPRHLIPLVENSHCLRNLQIFWL,71300
8,GMVPGYYPKMPYNPMGGDPLLDQAFYGADDFFFPPEGCDNNMLYPQTATSWNV,138000
9,CEPLRKATRGLVTTVVNGNDVVPSLSIGVVRDFHSVALSFKEDTGGVLGEVRK,39100
10,TESVCWDFVWLTFYFTFGLTSLITSWAALPPLSQWSLSFGQLVPIFLLLFFLT,46700
11,VSSCCPFPLFLFFSFFLSFFLPFLLSSFLSITQSSWPPFHCPCQDTFPFSLPF,28000
12,KIHLVNMAQVVVIFLHRILYGIIPLFEITTCAYFPLLVSLWHLAYILFYVVMF,81600
13,MEWVRTARGRVPPGRRPVEGGYESSGARLYHALAVVDGVRVPGKTGEHLGGCN,32000
14,VHNNSNNSNNSNISASDYTVANNSTSNNNNNNNNNNNNNNNIHPNQFTAAANM,39200
15,GSSGRRVRILGVCGLGRNYVMMRVIELGGILEGEVTIRRMAVSSHPSSVWIAT,67500
16,MAGSFFFSFFFLSLFMLFHFLSLSFLIFFFLSSLSSFAFLLLLISPFGPPNPH,54400
17,KVVLLFAGWIIKIIVAKLMLAWSQSMRKVIVQRAQLVYRFGINGMVFYSIGCA,60400
18,MVFPSKSLFYLVGPCLSFFFVPPTWYDVFHLLFSPMTLDYYPFVLWYSPFLST,39300
19,MRQVHIVFSGRDSGRESDIEVVSETSVFHDAAFVLGCVLVRGRSFAAPLLTAL,32700
20,NILVRELQWCILCIRYTALGSLDHIRRLMTEIPAHHGLVRFLQRWVENWLEEQ,37400
21,EEEEEEERPAKRQKKKLAAEEDEEEGEGEGEEEEEEEERPAKRQKKKPAAEDE,26900
22,YYLGKYQENSKEKRKFQVIRSGMSELNHILYMALDNATNMVIMWMLLVQYHAT,55600
23,ANRIAIRLFHFLLECPDEMTRLVAIKKYIKNTYMIPTYLVTVNCILRLAGYWK,55900
24,STTYYVLSLITFSSFPSIMVSYYSLLFSFFFISLCFLFPLPFVSSLFSHLILF,40300
25,KATEYCLYFFGLGPALFKSLLPDKYWQHYCMLVHAVRILVQRRITQTQMLEAY,49300

row,Sequence,transcriptional activation domain activity
1,RIVIPIRLVLLVFVTMASYLLFAMIIYACQNEWLYPFLSWDQGPVAVLWYLLL,42800
2,RKREEEDARVQEAALKEEEDARVREAARKEEEEEAERLKRRREEEDARVQEAA,22400
3,ERLPVDLAVVCTIVERLFGLAVMTARLRKLGSLHGVLLPRTWVLALWRDFIRF,67500
4,LLLVHGRWSYQRVADMHSNFFYKNVIWTFALFWYLPFNSFDATYLYQYTFILL,47600
5,MASQATTLRGYNIRKRDNVFEPKSSENLNSLNQSEEEGHIGRWPPLGYEAVSA,50300
6,SLTREFNDIGLLTELHYVQGIETLIKIGTRFSMVAALVVYRNFRWHLSSAIPP,48200
7,TNNWNPVHWDWNIFRQIVNFNWVLLFYFIFLLFSLFFHFIPVSCISIFYYFFS,25100
8,MIRPFSIYSITLDVFPWLLNLFFLFFFLILFPLLRNFLFCVVSLIQNIQPLCF,30400
9,LLVLLVFVADTLHMMGTTQFYWSMLVLCRRSDAAMCEAGLSWGSSISFPMNYV,42600
10,RSLQLSWSILLRFFKEHFCMDRLSLTIVDLGTLGSPLIRSERNGYLRRFFQVF,46700
11,EAAVTSDDEAGPAKKAKRGSVFEKFGGKFKSHKAAEKEPEAKEEAKEEEAKPA,14000
12,DLAPVQPVQKQARRRSGPACEGCKARKTKCDGKRPTCGSCVDKRHCVYADASV,21900
13,ATIIFVFTASICGYNFNFDWVFSYKLVEFENTLGWTLFCLWLFDALLCVLFMT,52700
14,MGFLTVHSCVFCFVVWVFFFPFFFLRDWFFSHSIFFLSLFFLVFFYIHLFLLG,43700
15,MVFSLASLSLLCLCLISFFFYLFFFFFFYQIPSPCFALWLANFYLSCRAWLDK,46600
16,QRGVGTGVLKVGVDGGGHDEERIRWEAEMVGRERNWVLKKFLGQAISSQLDHA,44800
17,PFPLSFPLPFLLSFPLPFLLSFPLISSQPFPLSLLSFPPFPPLSPLPPPSPFF,44600
18,MVLLDVGWLCISRFILLDSMLLFFTFLTVFCLTKFHNQQYQSFSVDWWVWLFL,67700
19,MSSLPLFPVLSSSLCFPLPPSLPLSSPPSVSPFPPFSLFPPLPLFSPFPPSIS,38900
20,GKDAEAADKPIEGKDAGDVEMNDAPEKEPEAEAAKPKGRGGRPKKVVPAAAAP,23900
21,MIVFLFWVIGINLDCNCWFSLFLILLMRVMDLMSYGWIIEVFFFLLNFYYLLF,53700
22,IMGRYCAKAVWLDTRQHLLNKLSQIGFNWDVLKSLVKSWWHYYSLAVMLWLYQ,69200
23,RRWTRSKWLLLCTYGMMFCIGLTMLLGCLLTWFRGYLRAEVITVGFKRILIIA,47500
24,QRNPGSRAVIVKPILHVYLEGAPGSLTTRNDSVVGLLVVQLSISLANALAMKA,22900
25,EDDDGKGNKQKTSEKRKLQNRQAQRNFRERKEKVSCPSSPAAPRASQGTRGSC,23900

row,Sequence,transcriptional activation domain activity
1,VFLHHFRRAIFPLCNLVCSSWNVITFSHPWMIFAIIMFLHWSWILGLQKGMLI,83600
2,EAPKPAPEQPKPKPVQEKPAAPAAETKEKGKAAPEPEAEDKKPARRPRKAKQP,8950
3,VVHLLSPKRLDILWGVNPKGIHIFRMVLFISLLFSYLGRSGSLMLSIARIFTY,45900
4,MFIFFKILILILLINIISITSFRLGAMLHYCIGHWDCMGNYLDCVFRLGFLFI,59000
5,MADAITESTAKLQLDEETGEMVSKGELKKRLAKRAKKAAQAKAKAEAPAPLAT,36300
6,MIASHPSPFLSRLFGLPLLFFSSFIEVSLFFLFFLPSLRFLFFFFPSLALFFF,42700
7,MSTNERKKQRFVKSIHKEKKNTACCSSTNVIGTSKLSSPVIAVVVVVVVVCWG,45100
8,PNRRSMGKQDPYCAARLGKEAKKTATDRRGGQTPKWDQELRFTVHDSPDYHQL,64200
9,RWIRVRKHMVLAATLVEPFTESVVLSIICASSLKYLFGVWLWISICVHFALWA,48100
10,SNRLFVGLPLCRDPEYLKFSVNHTMRVFMSGRMISVLTPVLRPILAPLLCSRK,49600
11,MGGVWGFLWSFFFLFPLFFFSLSKDGLDCFISFILVSFYFFSFLFCIHVFFFS,15600
12,SRGICVYPFLPFAFFLGVFFSLMEFVLLGMMMVLYLYMRTVTCMFDISICLLL,48500
13,MLWVCTSRKGESRVVCLGLAHLSIWIRGLLVLERILVCSMSLSCWRVGILKCT,53800
14,LLTYKLYRLWIVAAKITDDEKRKQCLHLTCCLLPKCHRDSLEILFYFLKWAGT,50700
15,WYGFLVTWGLLVLFIICFYFFISVSCCAFCVLFSSTWSFGRLFLLTFPLILLL,41700
16,MRILFTICRYFPLLFYPFYLWAWVPVHSKELCEKLICPFGQYLCILILLCACW,56600
17,RARRNSDSSIIDKAAQEKEDRRRRERRREREREEKDRDGKSSSTRKVRKPQGL,26200
18,CASPIFRLKYLYKIPSGIAAMAHIFSVVNHFTFFELMWLMERWNFRRALLGLM,62900
19,IQDLVFSIIGWFCFGGYTGYNIIQYVNMFGFAEWRRTLPVLYQLMYFNVWMSL,62900
20,FQFPIDFTNDFSDGFSLDADIGQFMDPLLLTSFLPSPIPFDDGTELSSLELLH,167000
21,ASLEGGGGVVDISGETSSYVWRVLVYLAFINPFFCFLCALYAILILLAVLVTY,29300
22,ELYIYSTVRYSFSDYLIPSGYNVCAFLLSCLMFNGDLMVELVLVMRSWFKRIL,66500
23,MCDLFYTHLISPLFPNMPFWVFFCRLFLLFSLLQCSFICGPFVAVLSYCWLSF,54600
24,PELIGFCCFSMRFFVFIDLLGTLILPATVVYLIYLIIVVATRASAFPQIAIIM,59400
